# Where two headings read alike, the source gives them in different places. Ends that are not written are not given here. Peptide text beside a SMILES is read from it.
# What was measured:
# [1] = target: afumPCNA (A. fumigatus PCNA) (Aspergillus fumigatus, UniProt A0A229Y5V5); assay: biochemical; assay type: binding
# Method: Surface plasmon resonance (SPR) experiments were performed as previously described. The running buffer used for ligand attachment and analyte-binding experiments was a 10 mM HEPES buffer with 150 mM NaCl, 3 mM EDTA, and 0.05% Tween-20, adjusted to pH 7.4 with 2 M NaOH. A GE CM5 (series S) sensor chip was primed with the running buffer and preconditioned with successive injections (2 × 50 s, 30 μL/min) of 50 mM NaOH, 10 mM HCl, 0.1% SDS, 0.85% H3PO4, and 50 mM glycine pH 9.5, respectively. The surface was then activated with an injection of 0.2 M 1-ethyl-3-(3-dimethylaminopropyl)carbodiimide (EDC) and 50 mM N-hydroxysuccinimide (NHS) (600 s, 10 μL/min). A. fumigatus PCNA (5 μL, 12 mg/mL) was diluted into the running buffer (245 μL). Upon the preactivation of the surface, the protein was further diluted to a final concentration of 25 μg/mL in 10 mM NaAc (~pH 4.6). This solution was immediately injected over the target flow cell (10 μL/min) to immobilize ~1500 RU. Both the target and reference flow cells were then blocked with 1.0 M ethanolamine at pH 8.5 (600 s, 10 μL/min). The chip was left to stabilize before sample injections commenced.
# Peptide stock solutions for use in SPR experiments were prepared in MilliQ water. The peptide stock concentration was determined via 205 nm absorbance with NanoDrop2000. The ε205 for each peptide was calculated using an online calculator (http://nickanthis.com/tools/a205.html, accessed on 22 August 2022 [24]); however, additional glycine residue was added to each peptide sequence to account for the terminal amide of the peptides synthesized in-house. The peptide stock solution’s concentration was then calculated using Beer’s Law.
# A 2-fold serial dilution was performed for each peptide, with 8 samples injected sequentially from the lowest to highest concentrations; they were preceded by a buffer-only blank injection. After each injection, the surface was regenerated with 2 M NaCl (2 × 30 s, 25 μL/min). All data were analyzed using the GE Biosystems Biacore S200 Evaluation Software, Version 1.0 (Build: 20).
# [2] = target: Aspergillus fumigatus proliferating cell nuclear antigen (Aspergillus fumigatus); assay: SPR
# [3] = target: T1, human proliferating cell nuclear antigen (human, UniProt P12004 1-259); assay: SPR; peptide against human PCNA, tested in triplicate; immobilisation of human PCNA not described here (SPR as previously described, ref. 18); conditions: both partners purified
# T1 construct: also called hPCNA; human PCNA
# [4] = afumPCNA Binding Affinity KD (nM) ± SD (nM)
# [5] = read-out: afumPCNA Binding Affinity KD (nM) ± SD, SPR steady-state affinity, afumPCNA immobilised on CM5 chip (~1500 RU), 10 mM HEPES, 150 mM NaCl, 3 mM EDTA, 0.05% Tween-20, pH 7.4, 8 x 2-fold dilutions, contact 40 s, dissociation 30 s, KD ± SD
# [6] = afumPCNA Binding Affinity KD (nM) ± KD SD (nM)
# T1 sequence (P12004 1-259): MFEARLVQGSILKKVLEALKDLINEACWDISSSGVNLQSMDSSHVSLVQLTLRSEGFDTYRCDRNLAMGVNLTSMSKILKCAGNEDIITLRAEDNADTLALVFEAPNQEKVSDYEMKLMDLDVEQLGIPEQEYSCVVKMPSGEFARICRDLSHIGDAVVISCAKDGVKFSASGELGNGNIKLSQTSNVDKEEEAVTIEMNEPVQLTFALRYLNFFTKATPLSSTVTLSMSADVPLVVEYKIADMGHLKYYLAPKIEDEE
Molecule,Kd [2] [nM],other results
CSCC[C@H](NC(=O)[C@H](CO)NC(=O)[C@@H](NC(=O)[C@H](CCC(N)=O)NC(=O)[C@H](CCCNC(=N)N)NC(=O)[C@H](CCCNC(=N)N)NC(=O)[C@@H](N)CCCCN)[C@@H](C)O)C(=O)N[C@H](C(=O)N[C@@H](CC(=O)O)C(=O)N[C@@H](Cc1ccc(O)cc1)C(=O)N[C@@H](Cc1ccccc1)C(=O)N[C@@H](Cc1c[nH]cn1)C(=O)N[C@@H](CO)C(=O)N[C@@H](CCCCN)C(=O)N[C@@H](CCCNC(=N)N)C(N)=O)[C@@H](C)O [p21μ-FY150151YF] (H-KRRQTSMTDYFHSKR-NH2),,"Kd [1, 4]: 96.4 ± 19.6 nM"
CSCC[C@H](NC(=O)[C@H](CCCNC(=N)N)NC(=O)[C@H](CCCNC(=N)N)NC(=O)[C@@H](N)CCCCN)C(=O)N[C@H](C(=O)N[C@@H](CO)C(=O)N[C@@H](CCSC)C(=O)N[C@H](C(=O)N[C@@H](CC(=O)O)C(=O)N[C@@H](Cc1ccccc1)C(=O)N[C@@H](Cc1ccc(O)cc1)C(=O)N[C@@H](Cc1c[nH]cn1)C(=O)N[C@@H](CO)C(=O)N[C@@H](CCCCN)C(=O)N[C@@H](CCCNC(=N)N)C(N)=O)[C@@H](C)O)[C@@H](C)O [p21μ-Q144M] (H-KRRMTSMTDFYHSKR-NH2),,"Kd [1, 5]: 41400 nM"
CC[C@H](C)[C@H](NC(=O)[C@H](CCCNC(=N)N)NC(=O)[C@@H](NC(=O)[C@H](CCC(N)=O)NC(=O)[C@H](CCCNC(=N)N)NC(=O)[C@H](CCCNC(=N)N)NC(=O)[C@@H](N)CCCCN)[C@@H](C)O)C(=O)N[C@H](C(=O)N[C@@H](CCC(=O)O)C(=O)N[C@@H](Cc1ccc(O)cc1)C(=O)N[C@@H](Cc1ccccc1)C(=O)N[C@@H](Cc1c[nH]cn1)C(=O)N[C@@H](CO)C(=O)N[C@@H](CCCCN)C(=O)N[C@@H](CCCNC(=N)N)C(N)=O)[C@@H](C)O [p21μ-RD2] (H-KRRQTRITEYFHSKR-NH2),,Kd ([1]; Affinity KD (nM) (Table S1)): 20.3 nM
CSCC[C@H](NC(=O)[C@H](CO)NC(=O)[C@H](CC(=O)O)NC(=O)[C@H](CCC(N)=O)NC(=O)[C@H](CCCNC(=N)N)NC(=O)[C@H](CCCNC(=N)N)NC(=O)[C@@H](N)CCCCN)C(=O)N[C@H](C(=O)N[C@@H](CC(=O)O)C(=O)N[C@@H](Cc1ccccc1)C(=O)N[C@@H](Cc1ccc(O)cc1)C(=O)N[C@@H](Cc1c[nH]cn1)C(=O)N[C@@H](CO)C(=O)N[C@@H](CCCCN)C(=O)N[C@@H](CCCNC(=N)N)C(N)=O)[C@@H](C)O [p21μ-T145D] (H-KRRQDSMTDFYHSKR-NH2),,"Kd ([1]; Affinity KD (nM) (Table S1), SPR steady-state affinity against AfumPCNA, 8x 1 in 2 dilutions from Top Conc, On/Off 40/30 s): 4110 nM"
CSCC[C@H](NC(=O)[C@H](CO)NC(=O)[C@H](CCCCN)NC(=O)[C@H](CCC(N)=O)NC(=O)[C@H](CCCNC(=N)N)NC(=O)[C@H](CCCNC(=N)N)NC(=O)[C@@H](N)CCCCN)C(=O)N[C@H](C(=O)N[C@@H](CC(=O)O)C(=O)N[C@@H](Cc1ccccc1)C(=O)N[C@@H](Cc1ccc(O)cc1)C(=O)N[C@@H](Cc1c[nH]cn1)C(=O)N[C@@H](CO)C(=O)N[C@@H](CCCCN)C(=O)N[C@@H](CCCNC(=N)N)C(N)=O)[C@@H](C)O [p21μ-T145K] (H-KRRQKSMTDFYHSKR-NH2),,"Kd [1, 5]: 10000 nM"
CSCC[C@H](NC(=O)[C@H](CO)NC(=O)[C@@H](NC(=O)[C@H](CCC(N)=O)NC(=O)[C@H](CCCNC(=N)N)NC(=O)[C@H](CCCNC(=N)N)NC(=O)[C@@H](N)CCCCN)[C@@H](C)O)C(=O)N[C@H](C(=O)N[C@@H](CC(=O)O)C(=O)N[C@@H](Cc1ccccc1)C(=O)N[C@@H](Cc1ccc(O)cc1)C(=O)N[C@@H](Cc1c[nH]cn1)C(=O)N[C@@H](CO)C(=O)N[C@@H](CCCCN)C(=O)N[C@@H](CCCNC(=N)N)C(N)=O)[C@@H](C)O [p21μ],,"Kd [1, 4]: 265 ± 5.9 nM"
CC[C@H](C)[C@H](NC(=O)[C@H](CO)NC(=O)[C@H](CCCNC(=N)N)NC(=O)[C@@H](NC(=O)[C@H](CCCNC(=N)N)NC(=O)[C@H](CCC(N)=O)NC(=O)[C@H](CCCNC(=N)N)NC(=O)[C@H](CCCNC(=N)N)NC(=O)[C@@H](N)CCCCN)C(C)C)C(=O)N[C@@H](C)C(=O)N[C@@H](CO)C(=O)N[C@@H](Cc1ccccc1)C(=O)N[C@@H](Cc1ccccc1)C(=O)N[C@@H](Cc1c[nH]cn1)C(=O)N[C@@H](CO)C(=O)N[C@@H](CCCCN)C(=O)N[C@@H](CCCNC(=N)N)C(N)=O [p21μafumDNALIG] (H-KRRQRVRSIASFFHSKR-NH2),,"Kd [1, 6]: 458 ± 118 nM"
CC(C)C[C@H](NC(=O)[C@H](CCCNC(=N)N)NC(=O)[C@H](CO)NC(=O)[C@H](CCC(N)=O)NC(=O)[C@H](CCCNC(=N)N)NC(=O)[C@H](CCCNC(=N)N)NC(=O)[C@@H](N)CCCCN)C(=O)N[C@@H](CCC(=O)O)C(=O)NCC(=O)N[C@@H](Cc1ccccc1)C(=O)N[C@@H](Cc1ccccc1)C(=O)N[C@@H](Cc1c[nH]cn1)C(=O)N[C@@H](CO)C(=O)N[C@@H](CCCCN)C(=O)N[C@@H](CCCNC(=N)N)C(N)=O [p21μafumFEN1] (H-KRRQSRLEGFFHSKR-NH2),,"Kd [1, 6]: 713 ± 56.9 nM"
CC[C@H](C)[C@H](NC(=O)[C@H](CC(=O)O)NC(=O)[C@@H](NC(=O)[C@@H]1CCCN1C(=O)[C@H](CCSC)NC(=O)[C@H](CCCNC(=N)N)NC(=O)[C@H](CCCNC(=N)N)NC(=O)[C@@H](N)CCCCN)[C@@H](C)O)C(=O)N[C@@H](CCCNC(=N)N)C(=O)N[C@@H](CC(N)=O)C(=O)N[C@@H](Cc1ccccc1)C(=O)N[C@@H](Cc1ccccc1)C(=O)N[C@@H](Cc1c[nH]cn1)C(=O)N[C@@H](CO)C(=O)N[C@@H](CCCCN)C(=O)N[C@@H](CCCNC(=N)N)C(N)=O [p21μafumRFC] (H-KRRMPTDIRNFFHSKR-NH2),,"Kd [1, 6]: 94.8 ± 8.76 nM"
p21µ peptide (141-155),265,
p21µ-FY150151YF peptide,96.4,
KRRQTSMTEFYHSKR-NH2 [p21µ-D149E peptide],401,
KRRQTSMTDFFHSKR-NH2 [p21µ-Y151F peptide],167,
KRRQTRITEYFHSKR-NH2 [p21µ-RD2 peptide],20.3,
KRRMTSMTDFYHSKR-NH2 [p21µ-Q144M peptide],41400,
KRRQKSMTDFYHSKR-NH2 [p21µ-T145K peptide],10000,
KRRQDSMTDFYHSKR-NH2 [p21µ-T145D peptide],4100,
KRRQTSLTDFYHSKR-NH2 [p21µ-M147L peptide],382,
KRRQTSITDFYHSKR-NH2 [p21µ-M147I peptide],37.1,
"KRRMPTDIRNFFHSKR-NH2 (also called p21μafumRFC; p21µRFC; source: synthetic peptide, Genscript Biotech (>95%, HPLC)) [p21µ-afumRFC peptide]",,Kd [3]: 295 nM
